According to patent US20250215108A1 (OSE IMMUNOTHERAPEUTICS, published 2025):
“And” between values parts separate entries of the source, which are not always exact repeats. Identical values can stand only once.

Columns and labels:
SIRPa on human monocytes [1] = target: T1, SIRPa on human monocytes (human, UniProt P78324 31-504); assay: flow cytometry on human monocytes v1/v1 (Fc receptors blocked), PE anti-human Fc; readout MFI
T1 construct: also called human monocytes (v1/v1); SIRPa variant 1 on monocytes
Procedure: (§1) FIG. 3A, B, C, D, E, F, G. Binding analyses of anti-SIRPa antibodies on human monocytes (homozygote for SIRPa variant 1 (v1/v1)). [0478] […] Revelation was performed with a PE labeled mouse anti-human Fc mAb on Cantoll cytometer, values corresponding to percentage of stained monocytes. […] A corresponds to the percentage of monocytes v1/v1 stained. B corresponds to the mean of fluorescence intensity (MFI) of monocytes v1/v1. [0479] […] D represents the percentage of stained monocytes over antibody dose response. Statistical analysis were performed when it was possible. [0480] (E, F, G) SIRPa variants binding in the population by anti-h SIRPa antibodies: The capacity of different anti-hSIRPa antibodies to bind SIRPa variants in the 32 volunteers was measured by FACS with a PE-anti mouse IgG. […] F represents the homozygote variant 2 volunteers (n=8). G represents the heterozygote V1/V2 volunteers (n=8).
(§2) Method: To measure the binding of the anti-SIRPa antibodies on human monocytes, human Fc Receptor Binding Inhibitor (BD pharmingen; USA; reference 564220) was first added for 30 min at room-temperature to block human Fc receptors on human monocytes to reduce background. Then, an antibody was incubated for 30 min at 4° C., and washed before stained 30 min at 4° C. with PE-labelled anti-human IgG Fc (Biolegend; USA; reference 409303). For the mouse antibodies, a PE-labelled anti-mouseIgG (Jackson Immunoresearch; reference 715-116-151) was used. Samples were analyzed on BD LSRII or Canto II cytofluorometer.

SIRPa on human monocytes [2] = target: T1, SIRPa on human monocytes; assay: flow cytometry on human monocytes v1/v1 (Fc receptors blocked), PE anti-human Fc; readout % stained monocytes
Procedure: as §1, §2

[3] = target: T2, CD47 on human blood cells (T cells, red blood cells, platelets) (human, UniProt Q08722 19-323); assay: flow cytometry on human red blood cells (left panel) and freshly isolated human platelets (right panel)
T2 construct: whole, on cells

SIRPa on human monocytes [4] = target: T1, SIRPa on human monocytes; assay: competition flow cytometry on human monocytes v1/v1: antibody titrated with biotinylated CD47-Fc (competitor; 10 µg/ml in the legend, 5 µg/ml in Example 5), PE-streptavidin; readout % positives
Description: (§3) FIG. 5A, B, C. […] [0485] […] A corresponds to the percentage of positive cells. B corresponds to the mean of fluorescence intensity. [0486]

SIRPa on human monocytes [5] = target: T1, SIRPa on human monocytes; assay: competition flow cytometry on human monocytes v1/v1: antibody titrated with biotinylated CD47-Fc (competitor; 10 µg/ml in the legend, 5 µg/ml in Example 5), PE-streptavidin; readout median fluorescence
Description: as §3

[6] = target: T3, recombinant hSIRPa (Sino Biologicals, reference 10975-H08H) (human, UniProt P78324 31-370); assay: ELISA (ED50), immobilized hSIRPa, anti-mouse Fc detection
T3 construct: Used in the ELISA with the mouse antibodies
Procedure: For the ELISA assay with the mouse antibodies, a recombinant hSIRPa (Sino Biologicals, Beijing, China; reference 10975-H08H) was immobilized on plastic at 0.5 μg/ml in carbonate buffer (pH 9.2) and the purified antibody was added to measure binding.

Row | Binder | EC50 (SIRPa on human monocytes [1]) [µg/mL] | EC50 (SIRPa on human monocytes [2]) [µg/mL] | binding result [3] | IC50 (SIRPa on human monocytes [4]) [µg/mL] | IC50 (SIRPa on human monocytes [5]) [µg/mL] | EC50 [6]
1 | HFLA (humanized 18D5 variant) (antibody, human IgG4 S228P, kappa, V domains shown) VH: EVQLVQSGAEVKKPGESLRISCKASGYSFTSYWVHWVRQMPGKGLEWMGNIDPSDSDTHYSPSFQGHVTLSVDKSISTAYLQLSSLKASDTAMYYCVRGGTGTMAYFAYWGQGTLVTVSS VL: DVVMTQSPLSLPVTLGQPASISCRSSQSLVHSYGNTYLYWYQQRPGQSPRLLIYRVSNRFSGVPDRFSGSGSGTDFTLKISRVEAEDVGVYFCFQGTHVPYTFGGGTKVEIKR | 0.328 | 0.174 |  |  |  | 
2 | HALA (humanized 18D5 variant) (antibody, human IgG4 S228P, kappa, V domains shown) VH: EVQLVQSGAEVKKPGESLRISCKASGYTFTSYWVHWVRQMPGKGLEWIGNIDPSDSDTHYNQKFKDHVTLSVDKSISTAYLQLSSLKASDTAMYYCVRGGTGTMAWFAYWGQGTLVTVSS VL: DVVMTQSPLSLPVTLGQPASISCRSSQSLVHSYGNTYLYWYQQRPGQSPRLLIYRVSNRFSGVPDRFSGSGSGTDFTLKISRVEAEDVGVYFCFQGTHVPYTFGGGTKVEIKR | 0.59 | 0.242 |  |  |  | 
3 | HEFLA (humanized 18D5 variant) (antibody, human IgG4 S228P, kappa, V domains shown) VH: EVQLVQSGAEVKKPGESLRISCKASGYSFTSYWVHWVRQMPGKGLEWMGNIDPSDSDTHYSPSFQGHVTLSVDKSISTAYLQLSSLKASDTAMYYCVRGGTGTLAYFAYWGQGTLVTVSS VL: DVVMTQSPLSLPVTLGQPASISCRSSQSLVHSYGNTYLYWYQQRPGQSPRLLIYRVSNRFSGVPDRFSGSGSGTDFTLKISRVEAEDVGVYFCFQGTHVPYTFGGGTKVEIKR | 0.858 | 0.356 |  |  |  | 
4 | HEFLB (humanized 18D5 variant) (antibody, human IgG4 S228P, kappa, V domains shown, also called anti-SIRPa HEFLB; HEFLB variant) VH: EVQLVQSGAEVKKPGESLRISCKASGYSFTSYWVHWVRQMPGKGLEWMGNIDPSDSDTHYSPSFQGHVTLSVDKSISTAYLQLSSLKASDTAMYYCVRGGTGTLAYFAYWGQGTLVTVSS VL: DVVMTQSPLSLPVTLGQPASISCRSSQSLVHSYGNTYLYWFQQRPGQSPRLLIYRVSNRFSGVPDRFSGSGSGTDFTLKISRVEAEDVGVYYCFQGTHVPYTFGGGTKVEIKR | 0.449 | 0.208 | no binding |  |  | 

More lines, now with the values ahead:

Row | EC50 (SIRPa on human monocytes [1]) [µg/mL] | EC50 (SIRPa on human monocytes [2]) [µg/mL] | binding result [3] | IC50 (SIRPa on human monocytes [4]) [µg/mL] | IC50 (SIRPa on human monocytes [5]) [µg/mL] | EC50 [6] | Binder
5 | 0.467 | 0.201 |  | 0.15 |  |  | HFLB (humanized 18D5 variant) (antibody, human IgG4 S228P, kappa, V domains shown) VH: EVQLVQSGAEVKKPGESLRISCKASGYSFTSYWVHWVRQMPGKGLEWMGNIDPSDSDTHYSPSFQGHVTLSVDKSISTAYLQLSSLKASDTAMYYCVRGGTGTMAYFAYWGQGTLVTVSS VL: DVVMTQSPLSLPVTLGQPASISCRSSQSLVHSYGNTYLYWFQQRPGQSPRLLIYRVSNRFSGVPDRFSGSGSGTDFTLKISRVEAEDVGVYYCFQGTHVPYTFGGGTKVEIKR
6 | 0.78 | 0.225 |  |  | 0.2 |  | chimeric mouse/human 18D5 antibody (antibody, human IgG4 S228P, kappa, also called chimeric antibody; chimeric 18D5) heavy: not shown light: DVVMTQTPLSLPVSLGDQASISCRSSQSLVHSYGNTYLYWYLQKPGQSPKLLIYRVSNRFSGVPDRFSGSGSGTDFTLKISRVEAEDLGVYFCFQGTHVPYTFGSGTKLEIKRTVAAPSVFIFPPSDEQLKSGTASVVCLLNNFYPREAKVQWKVDNALQSGNSQESVTEQDSKDSTYSLSSTLTLSKADYEKHKVYACEVTHQGLSSPVTKSFNRGEC
7 |  |  |  |  |  | 0.06 nM and 0.009 µg/mL | mouse antibody 18D5 (antibody, mouse IgG2b, kappa, also called m18D5; m18D5 clone) heavy: QVQLQQPGAELVRPGSSVKLSCKASGYTFTSYWVHWVKQRPIQGLEWIGNIDPSDSDTHYNQKFKDKASLTVDKSSSTAYMQLSSLTFEDSAVYYCVRGGTGTMAWFAYWGQGTLVTVSAAKTTPPSVYPLAPGCGDTTGSSVTLGCLVKGYFPESVTVTWNSGSLSSSVHTFPALLQSGLYTMSSSVTVPSSTWPSQTVTCSVAHPASSTTVDKKLEPSGPISTINPCPPCKECHKCPAPNLEGGPSVFIFPPNIKDVLMISLTPKVTCVVVDVSEDDPDVQISWFVNNVEVHTAQTQTHREDYNSTIRVVSTLPIQHQDWMSGKEFKCKVNNKDLPSPIERTISKIKGLVRAPQVYILPPPAEQLSRKDVSLTCLVVGFNPGDISVEWTSNGHTEENYKDTAPVLDSDGSYFIYSKLNMKTSKWEKTDSFSCNVRHEGLKNYYLKKTISRSPGK light: DVVMTQTPLSLPVSLGDQASISCRSSQSLVHSYGNTYLYWYLQKPGQSPKLLIYRVSNRFSGVPDRFSGSGSGTDFTLKISRVEAEDLGVYFCFQGTHVPYTFGSGTKLEIKRADAAPTVSIFPPSSEQLTSGGASVVCFLNNFYPKDINVKWKIDGSERQNGVLNSWTDQDSKDSTYSMSSTLTLTKDEYERHNSYTCEATHKTSTSPIVKSFNRNEC
